As usually defined, the Kd is the concentration at which binding is half-saturated.

Series [1] addresses TBP6.9 (Homo sapiens (lab-evolved)) (UniProt P09012). The experiment in a line: ITC. As to conditions: ITC: 50 mM Na-HEPES pH 7.5, 50 mM NaCl, 50 mM KCl, 2 mM MgCl2, 5 mM beta-mercaptoethanol, 20 C; protein in syringe, RNA in cell.
The target of series [2] is TBP6.9(F34M/F37M/F77M) 7Se-Met (Homo sapiens (lab-evolved)) (UniProt P09012). As to the kind of experiment: ITC. As to conditions: ITC: 50 mM Na-HEPES pH 7.5, 50 mM NaCl, 50 mM KCl, 2 mM MgCl2, 5 mM beta-mercaptoethanol, 20 C; protein in syringe, RNA in cell.
Series [3] deals with dmU1A (U1A RRM1 Y31H/Q36R) (Homo sapiens, UniProt P09012 1-98, Y31H;Q36R). As to the kind of experiment: ITC; ITC: 50 mM Na-HEPES pH 7.5, 50 mM NaCl, 50 mM KCl, 2 mM MgCl2, 5 mM beta-mercaptoethanol, 20 C; protein in syringe, RNA in cell. The settings on record: protein: recombinant; tags: N-terminal 6xHis removed with TEV protease; hairpin, loop closed by C65-G76. For orientation: Isothermal titration calorimetry measures the heat released or taken up as one component is titrated into another.

The target of series [4] is dmU1A(F37M/F77M) 7Se-Met (Homo sapiens, UniProt P09012 1-98, Y31H;Q36R;F37M;F77M). As to the kind of experiment: ITC; Se-Met protein; ITC: 50 mM Na-HEPES pH 7.5, 50 mM NaCl, 50 mM KCl, 2 mM MgCl2, 5 mM beta-mercaptoethanol, 20 C; protein in syringe, RNA in cell. As to conditions: protein: recombinant; tags: N-terminal 6xHis removed with TEV protease; hairpin, loop closed by C65-G76.
dmU1A(F37M/F77M) 7Se-Met, sequence (P09012 1-98 Y31H/Q36R/F37M/F77M): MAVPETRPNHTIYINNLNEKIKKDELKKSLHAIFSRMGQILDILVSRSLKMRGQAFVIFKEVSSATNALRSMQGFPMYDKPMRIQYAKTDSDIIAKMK

TBP6.9(F34M/F37M/F77M) 7Se-Met (Homo sapiens (lab-evolved)), sequence (P09012 whole entry, stated change not applied): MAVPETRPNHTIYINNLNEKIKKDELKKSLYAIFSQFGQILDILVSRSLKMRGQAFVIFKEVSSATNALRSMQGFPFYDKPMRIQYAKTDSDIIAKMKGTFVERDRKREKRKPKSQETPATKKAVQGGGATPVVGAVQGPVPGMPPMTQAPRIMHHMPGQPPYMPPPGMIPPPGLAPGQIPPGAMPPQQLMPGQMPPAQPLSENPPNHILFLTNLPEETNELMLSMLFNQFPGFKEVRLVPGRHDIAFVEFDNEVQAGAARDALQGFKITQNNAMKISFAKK
TBP6.9 (Homo sapiens (lab-evolved)), sequence (P09012 whole entry, stated change not applied): as above
dmU1A (U1A RRM1 Y31H/Q36R), sequence (P09012 1-98 Y31H/Q36R): as the sequence (P09012 1-98 Y31H/Q36R/F37M/F77M) above, with M37F, M77F counted along it

On to “GCAGAUCUGAGCCCGAAAGGAGCUCUCUGC [GNRA-TAR 30-mer]”, for which the Kd in series [1] was found to be 87.8 nM; in series [2] it was 69.8 nM.
For “GGAGAUCUGAGCCUGGGAGCUCUCUCC [HIV-1 TAR 27-mer]” the same measures were 8.5 nM and 13.5 nM.
Regarding CGAAUCCAUUGCACUCCGGAUUCG (structured_RNA) [hpII 24-mer (U1 snRNA hairpin II)], the dissociation constant Kd in series [3] is 152 ± 7 nM; in series [4], 59.7 ± 11.4 nM.
